Bounds are passed on as bounds.

The record followed here is publication PMC3688583, “Eubacterial SpoVG Homologs Constitute a New Family of Site-Specific DNA-Binding Proteins”.

The target of data set [1] is T1, SpoVGSa (Staphylococcus aureus) (UniProt Q7A7B5).
T1 sequence: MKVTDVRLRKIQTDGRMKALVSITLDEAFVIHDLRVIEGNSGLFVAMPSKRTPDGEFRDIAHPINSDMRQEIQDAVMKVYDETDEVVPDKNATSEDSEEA
The experiment in a line: competition. Conditions: 50 mM Tris-HCl pH 7.5, 1 mM DTT, 150 nM EDTA, 50 ng/ml poly dI-dC, phosphatase and protease inhibitors; about 20 C; protein stocks in 50 mM Tris-HCl, 25 mM ….

In data set [2] the target is T2, SpoVGBb (Borrelia burgdorferi B31) (UniProt O51726).
T2 sequence: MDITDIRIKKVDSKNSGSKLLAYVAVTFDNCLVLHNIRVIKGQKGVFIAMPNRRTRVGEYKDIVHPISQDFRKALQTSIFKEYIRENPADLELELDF
The data set is described as follows: EMSA. The conditions noted are these: 50 mM Tris-HCl pH 7.5, 1 mM DTT, 150 nM EDTA, 50 ng/ml poly dI-dC, phosphatase and protease inhibitors; about 20 C; protein stocks in 50 mM Tris-HCl, 25 mM …. (A gel shift assay detects complexes by their altered migration in electrophoresis.)

In data set [3] the target is T1, SpoVGSa (Staphylococcus aureus). The experiment in a line: EMSA. The conditions noted are these: 50 mM Tris-HCl pH 7.5, 1 mM DTT, 150 nM EDTA, 50 ng/ml poly dI-dC, phosphatase and protease inhibitors; about 20 C; protein stocks in 50 mM Tris-HCl, 25 mM ….
The target of data set [4] is T3, SpoVGSa (Staphylococcus aureus, UniProt Q7A7B5 1-100).
T3 sequence: T1 sequence
The experiment in a line: competition; 25- and 50-fold excess vs cap41; 50 mM Tris-HCl pH 7.5, 1 mM DTT, 150 nM EDTA, 50 ng/ml poly dI-dC, phosphatase and protease inhibitors; about 20 C; protein stocks in 50 mM Tris-HCl, 25 mM KCl, 10% glycerol, 0.01% Tween-20. The conditions noted are these: protein: recombinant; tags: 6xHis (pET101); blunt.

Data set [5] has as its target T3, SpoVGSa. The data set is described as follows: competition; 50-fold excess vs cap41; 50 mM Tris-HCl pH 7.5, 1 mM DTT, 150 nM EDTA, 50 ng/ml poly dI-dC, phosphatase and protease inhibitors; about 20 C; protein stocks in 50 mM Tris-HCl, 25 mM KCl, 10% glycerol, 0.01% Tween-20. Conditions: protein: recombinant; tags: 6xHis (pET101).
Data set [6] deals with T3, SpoVGSa. The experiment in a line: EMSA; 50 mM Tris-HCl pH 7.5, 1 mM DTT, 150 nM EDTA, 50 ng/ml poly dI-dC, phosphatase and protease inhibitors; about 20 C; protein stocks in 50 mM Tris-HCl, 25 mM KCl, 10% glycerol, 0.01% Tween-20. The conditions noted are these: protein: recombinant; tags: 6xHis (pET101); label: 5' biotin (strand 1); strands not exact complements (S12 has 3 extra nt).

In another data set the target is SpoVGSa K50A (Staphylococcus aureus, UniProt Q7A7B5 1-100, K50A). The experiment in a line: EMSA; 1.5 uM protein; 50 mM Tris-HCl pH 7.5, 1 mM DTT, 150 nM EDTA, 50 ng/ml poly dI-dC, phosphatase and protease inhibitors; about 20 C; protein stocks in 50 mM Tris-HCl, 25 mM KCl, 10% glycerol, 0.01% Tween-20. Conditions: protein: recombinant; tags: 6xHis (pET101); label: 5' biotin (strand 1); strands not exact complements (S12 has 3 extra nt).

The target of the next data set is SpoVGSa K50A-R51A (Staphylococcus aureus, UniProt Q7A7B5 1-100, K50A;R51A). The data set is described as above. Conditions: protein: recombinant; tags: 6xHis (pET101); label: 5' biotin (strand 1); strands not exact complements (S12 has 3 extra nt).
The target in the next data set is SpoVGSa R51A (Staphylococcus aureus, UniProt Q7A7B5 1-100, R51A). The description is as above. The conditions noted are these: protein: recombinant; tags: 6xHis (pET101); label: 5' biotin (strand 1); strands not exact complements (S12 has 3 extra nt).
The next data set concerns the target SpoVGBb-Sa (Borrelia burgdorferi B31, UniProt O51726 1-97, Q69S;F71M;K73Q;A74E). The experiment in a line: EMSA; 200 nM protein; 50 mM Tris-HCl pH 7.5, 1 mM DTT, 150 nM EDTA, 50 ng/ml poly dI-dC, phosphatase and protease inhibitors; about 20 C; protein stocks in 50 mM Tris-HCl, 25 mM KCl, 10% glycerol, 0.01% Tween-20. Conditions: protein: recombinant; tags: 6xHis (pET101); label: 5' biotin (strand 1); strands not exact complements (S12 has 3 extra nt).

The target of the next data set is T4, SpoVGBb (Borrelia burgdorferi B31, UniProt O51726 1-97).
T4 sequence: T2 sequence
Described as above. The conditions noted are these: protein: recombinant; tags: 6xHis (pET101); label: 5' biotin (strand 1); strands not exact complements (S12 has 3 extra nt).

Data set [7] has as its target T3, SpoVGSa. The data set is described as follows: competition; 10- to 50-fold excess vs cap41; 50 mM Tris-HCl pH 7.5, 1 mM DTT, 150 nM EDTA, 50 ng/ml poly dI-dC, phosphatase and protease inhibitors; about 20 C; protein stocks in 50 mM Tris-HCl, 25 mM KCl, 10% glycerol, 0.01% Tween-20. The conditions noted are these: protein: recombinant; tags: 6xHis (pET101); blunt.

With “GGTGAATACTTATCATTTAAGTCCTTTGACACCTCATCTAAAATTCTAGGACTTTTAACAATTTCTTTATACGTATTTACAAGTTGAATATTACTTTGAACCTCTTGCGCCATAAACTGAGGATTGTCACCCTTAGTTTGATTCACTAAAATTTGAGTATTAGCTTGATATTTAGGTGATAAGACGAAAAATGTAACAATAGCGC (double strand) [cap5A ORF DNA]”, in data set [1], the binding entry is “binds more weakly”.
On the same count and under the same terms, under “CCTCCTGAATATTTTAAGTTTATCAAAACTTTTTAGGGACACTATTTTTTGAAAAAGTGCTCCTTACTCAAATAATATATAAATTATTAGTATATGTATATAGTTTTTTAAGTATTTTTAGTTTTTTTTAAATAAATATATTGAATATACCCATATATTTTTAATTAACCATTCATTTTTGTAATATAAATGTGTATACTAAAATTAAATTAAATACATAAAGG (double strand) [esxA 5' non-coding DNA]” stands “binds”.
Regarding “GTTAATAGTTTGCCTAAGGAAAAAAGCGATATAAGTAGTACGACGGGGAAACCAGATAGTACAGGTTCTGTTGGT (double strand) [vlsE F27B-R10]”, in data set [2], the binding result was “binds”.
With cap5 5' non-coding DNA, the Kd (usually the equilibrium constant for the complex coming apart) in data set [3] turned out to be 316 nM.

B1: mutant competitor A (dsDNA)
DNA 1: GAGTAGCCGCCTTTTCGCCGGACATATA
DNA 2: TATATGTCCGGCGAAAAGGCGGCTACTC
Consider B1, for which the binding signal in the data set with SpoVGSa [4] was > 5 fold lower affinity than competitor A.

B2: competitor B (dsDNA)
DNA 1: TACATATAAATAAAAAGGCGAAAATAAT
DNA 2: ATTATTTTCGCCTTTTTATTTATATGTA
On to B2, for which, in the data set with SpoVGSa [5], the binding result is reported as “no binding”.

B3: cap41 (dsDNA)
DNA 1: GAGTATAATTATTTTTAATTTACATATAAATAAAAAGGCGAAAATAATGCGGTTTAAAAGTAATTAAT
DNA 2: ATTAATTACTTTTAAACCGCATTATTTTCGCCTTTTTATTTATATGTAAATTAAAAATAATTAATATACTC
Turning to B3, the binding result is listed as “binds” with SpoVGSa [6]; “no binding” in the data set with SpoVGSa K50A; “no binding” with SpoVGSa K50A-R51A; “no binding” with SpoVGSa R51A; “binds” with SpoVGBb-Sa; “no binding” with SpoVGBb.

B4: competitor A (dsDNA)
DNA 1: GAGTATAATTATTTTTAATTTACATATA
DNA 2: TATATGTAAATTAAAAATAATTATACTC
Take B4: the binding result with SpoVGSa [7] was “binds”.

B5: competitor C (dsDNA)
DNA 1: AAAATAATGCGGTTTAAAAGTAATTAAT
DNA 2: ATTAATTACTTTTAAACCGCATTATTTT
As for B5, the binding result in the data set with SpoVGSa [5] is reported as “no binding”.
